Source: publication doi:10.1101/2023.05.26.542337 (bioRxiv, 2023)

B1: Cas1 (type I-F, Pseudomonas aeruginosa PA14) (enzyme)
chain: MDDISPSELKTILHSKRANLYYLQHCRVLVNGGRVEYVTDEGRHSHYWNIPIANTTSLLLGTGTSITQAAMRELARAGVLVGFCGGGGTPLFSANEVDVEVSWLTPQSEYRPTEYLQRWVGFWFDEEKRLVAARHFQRARLERIRHSWLEDRVLRDAGFAVDATALAVAVEDSARALEQAPNHEHLLTEEARLSKRLFKLAAQATRYGEFVRAKRGSGGDPANRFLDHGNYLAYGLAATATWVLGIPHGLAVLHGKTRRGGLVFDVADLIKDSLILPQAFLSAMRGDEEQDFRQACLDNLSRAQALDFMIDTLKDVAQRSTVSA
B2: Cas2/3 (fusion of Cas2 to the Cas3 nuclease/helicase, type I-F, Pseudomonas aeruginosa PA14) (enzyme)
chain: MNILLVSQCEKRALSETRRILDQFAERRGERTWQTPITQAGLDTLRRLLKKSARRNTAVACHWIRGRDHSELLWIVGDASRFNAQGAVPTNRTCRDILRKEDENDWHSAEDIRLLTVMAALFHDIGKASQAFQAKLRNRGKPMADAYRHEWVSLRLFEAFVGPGSSDEDWLRRLADKRETGDAWLSQLARDDRQSAPPGPFQKSRLPPLAQAVGWLIVSHHRLPNGDHRGSASLARLPAPIQSQWCGARDADAKEKAACWQFPHGLPFASAHWRARTALCAQSMLERPGLLARGPALLHDSYVMHVSRLILMLADHHYSSLPADSRLGDPNFPLHANTDRDSGKLKQRLDEHLLGVALHSRKLAGTLPRLERQLPRLARHKGFTRRVEQPRFRWQDKAYDCAMACREQAMEHGFFGLNLASTGCGKTLANGRILYALADPQRGARFSIALGLRSLTLQTGQAYRERLGLGDDDLAILVGGSAARELFEKQQERLERSGSESAQELLAENSHVHFAGTLEDGPLREWLGRNSAGNRLLQAPILACTIDHLMPASESLRGGHQIAPLLRLMTSDLVLDEVDDFDIDDLPALSRLVHWAGLFGSRVLLSSATLPPALVQGLFEAYRSGREIFQRHRGAPGRATEIRCAWFDEFSSQSSAHGAVTSFSEAHATFVAQRLAKLEQLPPRRQAQLCTVHAAGEARPALCRELAGQMNTWMADLHRCHHTEHQGRRISFGLLRLANIEPLIELAQAILAQGAPEGLHVHLCVYHSRHPLLVRSAIERQLDELLKRSDDDAAALFARPTLAKALQASTERDHLFVVLASPVAEVGRDHDYDWAIVEPSSMRSIIQLAGRIRRHRSGFSGEANLYLLSRNIRSLEGQNPAFQRPGFETPDFPLDSHDLHDLLDPALLARIDASPRIVEPFPLFPRSRLVDLEHRRLRALMLADDPPSSLLGVPLWWQTPASLSGALQTSQPFRAGAKERCYALLPDEDDEERLHFSRYEEGTWSNQDNLLRNLDLTYGPRIQTWGTVNYREELVAMAGREDLDLRQCAMRYGEVRLRENTQGWSYHPYLGFKKYN

Target: the molecule itself
Experiment: cryo-EM structure

Protein	binding result
B1	binds
B2	binds
